According to the supplement of paper PMC9170038:

Tested on: K4 kissing-loop RNA reporter
Assay: apparent KD of K4 kissing-loop reporter; higher = weaker reporter binding
Settings: Eterna round: R107
Procedure: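 RNA-MaP round R107: designed RNA switches with theophylline, tryptophan, arginine or FMN aptamers are transcribed on-chip within common flanks. They are titrated with a labelled K4 kissing-loop RNA reporter in RNA-MaP buffer (100 mM Tris pH 7.5, 80 mM KCl, 4 mM MgCl2), without ligand or with the indicated ligand. Median apparent KD per design.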

[1] = input ligand: theophylline 20 uM
[2] = input ligand: tryptophan 2.4 mM
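Note: bound reporter read as fluorescence of individual clusters on recovered sequencing chips by microscopy, with normalized cluster intensities fitted with a binding model.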

Row | Sequence | apparent KD of K4 kissing-loop reporter (input ligand: FMN 200 uM) [µM] | apparent KD of K4 kissing-loop reporter (input ligand: arginine 13.2 mM) [µM] | apparent KD of K4 kissing-loop reporter (input ligand: none) [µM] | apparent KD of K4 kissing-loop reporter [1] [µM] | apparent KD of K4 kissing-loop reporter [2] [µM]
1 | GCAGACACGCAGUGAUGUUGCGAAACGGAAGGAGCGCGUGAAAACGCAGGUAGGUCGCCGAAACAUAAAUUAUAAUUUUGUUUGC [Arginine A K4 13] | 0.244 | 0.194 | 0.221 | 0.24 | 0.177
2 | GGUAGCAUGGCGGCCGCCACUGUCUAGUGAUGUUAGACCCGACGUGGAUUCAAGACAGUCGGAAACAGGACCGGGCCAUGCUACC | 0.39 | 0.229 | 0.33 | 0.163 | 0.179
3 | GGCCGGAAGGCGAGCGCUCCCACUCCGGAAGGAGCGCCCGCAAGGGCAGGUAGGUCGCCGGAGUGAUGUUCCGGUGGAGGGCUCG [#2 Exclusion - Arginine A Attempt #20 (Inspired by Omei)] | 0.185 | 0.308 | 0.379 | 0.00889 | 0.136
4 | AACUCUCAGGCACGCGAGUGAUGUUCGCGCCGAGGACCGGUACGGCCGCCACUCGGGCCUGAGAGAGGUUAUCAAAGAUAGCCAA [whbob_SS_tryp_A] | 0.306 | 0.105 | 0.137 | 0.204 | 0.25
5 | UUAGCUCUAUAGAGCAAGAGGUAUACUGAUACCAGAGGCUAUAGCCUCCCUUGGCAGCGGAUCGAGUGAUGUUCGUAACCUCAUU [AK4.5 SS Theophylline A] | 0.616 | 0.661 | 0.812 | 0.724 | 0.433
6 | CAUACGCAUGGAGGAUAUGGGAUUACUCAUAUUACCCUGUAACAGGUAUCUCAGUGAUGUUGAGACUCAGAAGGCCAUGUGUAUG [Ex FMN B 23] | 0.615 | 0.289 | 0.348 | 0.37 | 0.344
7 | GCAGUGAUGUUGCGGAUGUACAGUGGCGUGCGAGGACCGGUACGGCCGCCACUCGUACAGCACAAGCUAAUACAUCGAUAGGUGA [whbob_SS_Tryp_A_m2] | 0.566 | 0.287 | 0.357 | 0.38 | 0.43
8 | CUAUGGAAACAUAGGAAUCGGGAAACCGAUACCAGUAUGGAAACAUACCCUUGGCAGCGGAAUGAUUCAACGGAGUGAUGUUCCG [Theophylline A K4 20] | 0.395 | 0.327 | 0.399 | 0.293 | 0.321
9 | CUGAGCCUGACGCAAGUCAGGCUCUGCGAGCGAGGACCGGUACGGCCGCCACUCGGUGCAGUGAUGUUGCAUGGCCGCAAGGCCG [#2 Exclusion - Tryptophan A Attempt #21 (HarryS)] | 0.254 | 0.215 | 0.274 | 0.218 | 0.306
10 | UUCUGCAUCUCGGCCGCCACUCACUAGUGAUGUUAGUAAGGAGCGACUAGACAUGUCCCGUUGUUGAGGACCGGGAGAGGCUCUU [#14 K4 Tryptophan B Exclusion] | 0.156 | 0.164 | 0.164 | 0.191 | 0.17
11 | UGUAUGUGAUUUGAUACCAGACCAGCUGGAGGAAUCUGAGUGAUGUUCAGGUAGGUUUGGGUCCCUUGGCAGCAAAUCGCAUACU [KL-SSTheoB17] | 0.251 | 0.196 | 0.236 | 0.192 | 0.209
12 | GCCUGGGCACGAAGGAGCGCCGUGACAGGUUACUGCAUUGGGCAGUGAUGUUGCUCAAUCUGGCAGGUAGGUCGCGUGCCCAGGC | 0.106 | 0.114 | 0.11 | 0.12 | 0.113
13 | AACGCAAGUUGUCUGGUAGACAUUUCAGAUACCAGACAUAGUGAUGUCCCUUGGCAGCUGAACAUCCAGUGAUGUUGGAUACGUU [Theo A SS t11a] | 0.444 | 0.394 | 0.513 | 0.507 | 0.4
14 | ACCUACCAUUAGUGAUGUUAAUGGACGGAAGGAGCGCAGAUAUCUGCAGGUAGGUCGCCGAAGGCUAGACAUUGUCUAGCCAUUU [AK1.3 SS Arginine A] | 0.192 | 0.161 | 0.217 | 0.155 | 0.18
15 | UGUACCGAGUCAGGAUAUCGCGUCGAAAGACGAAACGAGUGAUGUUCGAAUCGAUCGAAAGAUCGUCGAGAAGGGACUUGGUACU [FmnBS 22 #SwitchBubble #StaticStem #DoubleMagnetSystem] | 0.219 | 0.676 | 0.642 | 0.569 | 0.589
16 | CUUAAGGAGUGUCGUGCCGGACACUGGGAAGGAGCGCAAUUCUUUGCAGGUAGGUCGCCCAGUGAUGUUGGGUGGCGCUGUCGAA [Laatonbi] | 0.19 | 0.156 | 0.149 | 0.156 | 0.128
17 | GGGAAGUACGGAGGAUAUGCACUGAGGAGGAGAAUAUAGUGAUGUUAUAUAAGAGGAAGGAGAAGAGUAGAAGGCCGUGGAAAGG [SSFMNB.C] | 0.175 | 0.115 | 0.228 | 0.151 | 0.117
18 | GCCAGUGAUGUUGGCAUUUCGAGCCAUGAAGGAGCGCACGGAAGUGCAGGUAGGUCGCAUGGUACUUAAGAUAUUAUCCUAAGUA [Atceis] | 0.21 | 0.162 | 0.192 | 0.177 | 0.129
19 | GAUUCAGUGAUGUUGGAAGGCGAGCGGGAUACCAGCCGAGACUCAGGCCCUUGGCAGCCCACAUAUCCCAGGUAGAUAGUCGAUC [Same State - Theophylline A (Freestyle 9)] | 0.185 | 0.118 | 0.17 | 0.165 | 0.16
20 | AAUGUACAGGGAAGGAGCGUAGUCCAGUGAUGUUGGAAUUAAAUUCCUGCGAUGUUGGUUAUACAGGUAGGUCGCCCUAAAGUGC [KL-XARG-B22] | 0.367 | 0.351 | 0.436 | 0.497 | 0.344
21 | UAGCGUCUGCGAGGAUAUCGGAUUAGAGUGAUGUUCUAAAGACGCCCAGUGAUGUUGGAUGCGAUACGAGAAGGCGCUGGGCGCG [Same State FMN B GF7] | 0.182 | 0.358 | 0.399 | 0.332 | 0.297
22 | UGUAUAUGAUGUGAUACCAGUGAAGAGCCAGUGAUGUUGGUAGAACUGGUAUAUAAAUAACACCCUUGGCAGCACAAUCACGUAC [whbob_Ex_Theo_B_sa98] | 0.192 | 0.188 | 0.202 | 0.265 | 0.196

Row | Sequence | apparent KD of K4 kissing-loop reporter (input ligand: FMN 200 uM) [µM] | apparent KD of K4 kissing-loop reporter (input ligand: arginine 13.2 mM) [µM] | apparent KD of K4 kissing-loop reporter (input ligand: none) [µM] | apparent KD of K4 kissing-loop reporter [1] [µM] | apparent KD of K4 kissing-loop reporter [2] [µM]
23 | GGGCGCGGCGCGGCCGCCACUGGGCCUGGGCGCGCGCCGAGUGAUGUUCGCCUGCGGCUGGGUCGUAGGACCGGGUGCCGGCUGG [BDazzled 1] | 0.422 | 0.202 | 0.311 | 0.376 | 0.188
24 | CCGAAGAACCAGUGAUGUUGGUUGACUAGACAGGAUAUGAGCAACAUCAGAAGGGUCUGGCUUCGGGAGUGGGCCGCGCUGACCU [Artilati] | 0.324 | 0.193 | 0.24 | 1.21 | 0.395
25 | GGUUUAUAGGAGGAUACCAGUACGGAUAAAGUACGUUAAUAGUAGAGUGAUGUUCUAAAGUACCCUUGGCAGCUUAGAGUAAGUU [ExTheophylB.K] | 0.0858 | 0.147 | 0.105 | 0.117 | 0.0634
26 | AGGUACAAAAGUACCGCUAGAUCCACGGAAGGAGCGGCCGAAAGGCCAGGUAGGUCGCCGGGCAGUGAUGUUGCCGGAUCUAGCA [Omei KL Arginine A SS A v2] | 0.194 | 0.171 | 0.2 | 0.185 | 0.169
27 | GCGGACAUUCGCAGUGAUGUUGCGACGGAAGGAGCGCGUGAAAACGCAGGUAGGUCGCCGACAAAAUUAAUUUUAAUGUGUUCGC [Arginine A K4 30] | 0.362 | 0.387 | 0.394 | 0.415 | 0.306
28 | UAGGAGUGAUGUUCCAUAUCUUGAGCCGAAGGAGCGCCUUUAUAGGCAGGUAGGUCGCGGCAGAAGGUACCAGUGAUGUUGGAAA [Same State Arginine A GF6] | 0.147 | 0.147 | 0.164 | 0.145 | 0.135
29 | AAAGCAGUAUACUGCAAGACCUAUACUGAUACCAGAGUCAAUUGACUCCCUUGGCAGCGGAUCGAGUGAUGUUCGUAAGGUCAAA [AK4.1 SS Theophylline A] | 0.498 | 0.555 | 0.528 | 0.734 | 0.617
30 | UAGUCCUAGUGAUCGUUAUCAAGUGGUGGGCGAGGACCGGUACGGCCGCCACUCGACUAUGCAGUGAUGUUGCAAUCCGGACAAU [Exclusion - Tryptophan A (Freestyle 14)] | 0.209 | 0.238 | 0.222 | 0.254 | 0.213
31 | UAAUAAAUUCCAGCGAUAUCGCUCUUCGAAGGAGCGGGCGAAGGUCCAGGUAGGUCGCGGAGAGUGAUGUUCUUUGCGGCGCUGG [whbob_Ex_Arginine_A_2t135] | 0.216 | 0.225 | 0.239 | 0.226 | 0.273
32 | UGUGUUGUUGUGAUGUUUAGUGUUGUUGGGCAGGAUAUCGUAGAGGCGAGAAGGGCUUGUGUGCUGUAUGAGUGAUGUUUGUAGG [xrrxmullin] | 0.372 | 0.238 | 0.428 | 0.262 | 0.322
33 | AGGCCCGGCCGAAAGGCCGGGCCAAGAGAUACCAGCAGCGAAAGCUGCCCUUGGCAGCUCACUUAGUGAUGUUAAGAGAUAAAUG [SS Theo A Tesla 1.2] | 0.365 | 0.353 | 0.294 | 0.424 | 0.279
34 | UUUGGUUUCUCGGCCGCCACUCGUUGUCUAUCGGCUUCAGGGAUAUAGUGAUGUUAUGUAUAGAAGAGGACCGGGAGAAGGUUCU [ExTryptoB.Dx] | 0.28 | 0.267 | 0.347 | 0.307 | 0.182
35 | AGUUCCUCUGUCGAUACCAGCUUCAGUUGGCGGCCAGUGAUGUUGGUAUCGCCGAUGCCAAGCCCUUGGCAGCGACAUGAGACCC [Lausso] | 0.188 | 0.187 | 0.169 | 0.111 | 0.197
36 | AUGGUGGAUCAGUGAUGUUGGUGGAGUACGUAGGAUAUGAGUGAUGUUAGAAGGAUGGGAGUGAUGUUCCAGGUGGUUGUGUUGU [KL-SSFMN-A1] | 0.557 | 0.364 | 0.652 | 0.507 | 0.492
37 | CGUCACAAACCUAGUCAAGUGAUGUUUGGCCGAGGACCGGUACGGCCGCCACUCGCUCCUGUCACCCAUUCGUGUGUCGCGGACU [theeternabot_exclusion_KL_Trp_A_5] | 0.377 | 0.148 | 0.316 | 0.473 | 0.297
38 | UGACGUUUGGGAAGGAGCGGAAUGUAAUACGGAGCGCGUGGAGAUGCAGUGAUGUUGCAGAUCCAGGUAGGUCGCCCAAGGGACG [Zati] | 0.0953 | 0.0835 | 0.0809 | 0.0793 | 0.0796
39 | AAGGGCUAGGCGGCCGCCACUGGUCGUGAACACAUACGAGCCAGUGAUGUUGGUAUUGUGUGCGGCAGGACCGGGCCUAGCCGAA [Exclusion - Tryptophan B (Freestyle 24)] | 0.343 | 0.338 | 0.391 | 0.409 | 0.462
40 | GGAUAGGACAUAGGAUAUGGGCUAGGCAAGAAUAACUUGUCUAGCAAAUCCAUGAGGAGUGAUGUUCCAGAAGGGUGUCCUAUCG [FmnBX 1 U11+G75] | 0.194 | 0.105 | 0.0994 | 0.111 | 0.0899
41 | UGACUGGAUGGAAGGAGCGCUAAACUCCUAGUGAUGUUAGGGAUAUGAGGCAAAGCCUCGAAGCAGGUAGGUCGCCAUCUAGUCU [FiskerMod 20 - Jieux - Same State - Arginine B] | 0.159 | 0.114 | 0.148 | 0.16 | 0.156
42 | GAGUGGCAGACGGCCGCCACUCUUAGCAGCCAGCGGAGUGAUGUUCCGCCCGAGUGAUGUUCGGAGAGGACCGGGUUUGUUGUAA [Exclusion Tryptophan B GF 29] | 0.119 | 0.146 | 0.146 | 0.149 | 0.125
43 | CCGGGCGGCUGAAGGAGCGGGCGGGCCCGAGUGAUGUUCGGGUGGGCCGUGAGGUCCGGUGCCCAGGUAGGUCGCGGUUCCGCCC [#2 Same State - Arginine B Attempt #10 (HarryS)] | 0.2 | 0.169 | 0.262 | 0.215 | 0.164
